Key:
[1] = biological target: murine OX40 expressed on cells (CHOK1-mOX40) (murine) (UniProt P47741); test: flow cytometry on CHOK1-mOX40 cells
[2] = biological target: murine VISTA expressed on EL4 cells (EL4-mVISTA) (murine) (UniProt Q9D659); test: flow cytometry on EL4-mVISTA cells
[3] = biological target: hOX40-His (human) (UniProt P43489); test: SPR (BioRad ProteOn XPR 360) per Example 5; FIG. 5 legend says biolayer interferometry (Octet); hOX40-His as ligand, analyte at 66.7 nM
Chain of hOX40-His (human) (P43489 29-216 limits assumed): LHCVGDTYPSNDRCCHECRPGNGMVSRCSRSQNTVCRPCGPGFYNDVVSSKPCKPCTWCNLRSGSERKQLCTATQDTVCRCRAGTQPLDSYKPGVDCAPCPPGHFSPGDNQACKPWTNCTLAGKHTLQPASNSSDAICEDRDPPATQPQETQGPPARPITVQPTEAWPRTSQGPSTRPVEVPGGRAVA

Chain of murine VISTA expressed on EL4 cells (EL4-mVISTA) (murine) (Q9D659 33-308): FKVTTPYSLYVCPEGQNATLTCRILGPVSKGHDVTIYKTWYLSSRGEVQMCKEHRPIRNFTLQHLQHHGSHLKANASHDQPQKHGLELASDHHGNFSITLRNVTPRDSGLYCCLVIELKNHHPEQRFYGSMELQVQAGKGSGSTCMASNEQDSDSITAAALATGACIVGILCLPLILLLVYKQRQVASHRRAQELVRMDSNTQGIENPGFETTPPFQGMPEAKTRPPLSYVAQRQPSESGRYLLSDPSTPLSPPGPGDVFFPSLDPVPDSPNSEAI
Chain of murine OX40 expressed on cells (CHOK1-mOX40) (murine) (P47741 20-272): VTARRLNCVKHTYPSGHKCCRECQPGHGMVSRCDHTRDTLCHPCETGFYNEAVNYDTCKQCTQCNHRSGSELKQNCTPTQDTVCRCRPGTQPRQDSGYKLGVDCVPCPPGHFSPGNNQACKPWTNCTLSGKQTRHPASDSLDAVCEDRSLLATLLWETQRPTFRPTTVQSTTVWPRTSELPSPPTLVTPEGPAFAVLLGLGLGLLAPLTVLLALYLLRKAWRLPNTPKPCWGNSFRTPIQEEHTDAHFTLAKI

EC50 [1] [nM] | EC50 [2] [nM] | Kd [3] [nM] | koff [3] [s⁻¹] | kon [3] [M⁻¹ s⁻¹] | Substance
16 | 56 | – | – | – | murine VSIG8-Fc-OX40L chimeric protein (from UniProt Q6P3A4 22-262; P43488 51-198) (Fc fusion)
– | – | 0.152 | 5.03e-05 | 332000 | tavolixumab (an anti-human OX40 antibody)

From patent US20200071378A1
